{"source": "patent US20170334976A1", "about": "(ANNEXON, published 2017)", "key": {"mouse C1q [1]": {"molecular_target": "T1, mouse C1q (mouse, UniProt P14106 26-253)", "T1 construct": "In the CH50 assay the C1q is the one present in C57Bl/6 mouse serum; also called mouse C1q protein", "T1 sequence (chain, as listed by the source, chain 1 of 3)": "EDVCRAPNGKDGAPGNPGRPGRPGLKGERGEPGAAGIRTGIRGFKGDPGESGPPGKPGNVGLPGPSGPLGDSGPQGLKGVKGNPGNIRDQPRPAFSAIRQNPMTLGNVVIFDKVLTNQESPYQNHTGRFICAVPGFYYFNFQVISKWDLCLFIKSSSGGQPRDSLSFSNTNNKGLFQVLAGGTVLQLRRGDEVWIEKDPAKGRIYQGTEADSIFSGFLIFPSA", "T1 sequence (P14106 26-253, chain 2 of 3)": "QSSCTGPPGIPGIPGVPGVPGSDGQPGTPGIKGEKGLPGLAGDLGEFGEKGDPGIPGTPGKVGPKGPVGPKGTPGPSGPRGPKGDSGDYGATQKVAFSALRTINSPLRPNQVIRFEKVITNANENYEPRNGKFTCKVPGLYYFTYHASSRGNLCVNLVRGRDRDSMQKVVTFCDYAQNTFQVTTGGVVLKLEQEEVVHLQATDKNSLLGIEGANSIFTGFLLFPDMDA", "T1 sequence (chain, as listed by the source, chain 3 of 3)": "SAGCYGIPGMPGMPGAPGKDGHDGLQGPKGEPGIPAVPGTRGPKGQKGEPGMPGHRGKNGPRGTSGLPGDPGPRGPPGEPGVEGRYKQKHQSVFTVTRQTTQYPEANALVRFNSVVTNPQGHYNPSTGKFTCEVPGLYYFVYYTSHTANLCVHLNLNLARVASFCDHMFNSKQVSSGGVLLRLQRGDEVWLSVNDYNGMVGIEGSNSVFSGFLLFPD", "experiment": "OCTET biosensor, C1q immobilized; mouse C1q", "procedure": "(§1) C1q-antibody interactions were measured using an OCTET™ System according to standard protocols and manufacturer's instructions. Briefly, human and mouse C1q proteins were immobilized separately on a biosensor at three concentrations (3 nM, 1.0 nM, and 0.33 nM)."}, "[2]": {"molecular_target": "T2, human complement factor C1q (human, UniProt P02745 23-245; P02746 28-253; P02747 29-245)", "T2 construct": "The immunogen was C1q purified from human plasma (Complement Technology A-099); In the CH50 assays the C1q is the one present in human serum; Observed mass about 460 kDa; also called human C1q; hC1q", "T2 sequence (P02745 23-245 limits assumed, chain 1 of 3)": "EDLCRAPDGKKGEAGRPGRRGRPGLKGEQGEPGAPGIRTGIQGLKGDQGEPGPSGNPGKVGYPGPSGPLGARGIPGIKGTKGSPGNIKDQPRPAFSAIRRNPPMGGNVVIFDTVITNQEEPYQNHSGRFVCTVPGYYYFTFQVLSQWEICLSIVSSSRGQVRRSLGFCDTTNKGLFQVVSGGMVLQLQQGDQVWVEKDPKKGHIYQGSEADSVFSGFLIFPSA", "T2 sequence (P02746 28-253 limits assumed, chain 2 of 3)": "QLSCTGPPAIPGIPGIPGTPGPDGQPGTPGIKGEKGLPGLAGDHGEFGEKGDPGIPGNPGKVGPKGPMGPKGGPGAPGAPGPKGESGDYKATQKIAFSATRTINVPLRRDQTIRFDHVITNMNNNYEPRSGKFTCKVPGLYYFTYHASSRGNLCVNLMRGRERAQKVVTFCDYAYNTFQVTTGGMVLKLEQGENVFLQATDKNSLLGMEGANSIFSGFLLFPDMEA", "T2 sequence (P02747 29-245 limits assumed, chain 3 of 3)": "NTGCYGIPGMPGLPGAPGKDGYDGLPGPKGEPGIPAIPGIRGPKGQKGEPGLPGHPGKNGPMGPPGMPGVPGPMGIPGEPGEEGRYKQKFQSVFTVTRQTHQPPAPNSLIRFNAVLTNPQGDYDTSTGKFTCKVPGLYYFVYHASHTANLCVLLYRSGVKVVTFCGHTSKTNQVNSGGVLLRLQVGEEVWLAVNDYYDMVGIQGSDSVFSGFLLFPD", "experiment": "OCTET biosensor, C1q immobilized; human C1q", "procedure": "as §1"}, "mouse C1q [3]": {"molecular_target": "T1, mouse C1q", "experiment": "OCTET biosensor, C1q immobilized, full length antibody in solution", "procedure": "as §1"}, "[4]": {"molecular_target": "T2, human complement factor C1q", "experiment": "OCTET biosensor, C1q immobilized, full length antibody in solution", "procedure": "as §1"}}, "data": [{"binder": "murine anti-human C1q monoclonal antibody M1 (antibody, mouse IgG1, V domains shown, Tested as full length hybridoma antibody; Isotype mouse IgG1, kappa; also called ANN-005; anti-C1q antibody M1) VH: QVQLQQPGAELVKPGASVKLSCKSSGYHFTSYWMHWVKQRPGQGLEWIGVIHPNSGSINYNEKFESKATLTVDKSSSTAYMQLSSLTSEDSAVYYCAGERDSTEVLPMDYWGQGTSVTVSS VL: DVQITQSPSYLAASPGETITINCRASKSINKYLAWYQEKPGKTNKLLIYSGSTLQSGIPSRFSGSGSGTDFTLTISSLEPEDFAMYYCQQHNEYPLTFGAGTKLELK", "values": [{"measurement": "Kd", "setting": "mouse C1q [1]", "value": "< 0.1", "unit": "nM"}, {"measurement": "Kd", "setting": "[2]", "value": "< 0.1", "unit": "nM"}, {"measurement": "Kd", "setting": "mouse C1q [3]", "value": 0.0323, "unit": "nM"}, {"measurement": "Kd", "setting": "[4]", "value": 0.0128, "unit": "nM"}]}]}
